According to US20130089554A1 (EMERGENT PRODUCT DEVELOPMENT SEATTLE, published 2013):

T1: RON Sema-PSI-AFH protein (human, UniProt Q04912 25-568)
T1 construct: Produced in CHOK1SV cells; also called soluble RON Sema-PSI-AFH; not shown: c-terminal tag including avidin, 3xFLAG and 6x histidine tags
T1 chain: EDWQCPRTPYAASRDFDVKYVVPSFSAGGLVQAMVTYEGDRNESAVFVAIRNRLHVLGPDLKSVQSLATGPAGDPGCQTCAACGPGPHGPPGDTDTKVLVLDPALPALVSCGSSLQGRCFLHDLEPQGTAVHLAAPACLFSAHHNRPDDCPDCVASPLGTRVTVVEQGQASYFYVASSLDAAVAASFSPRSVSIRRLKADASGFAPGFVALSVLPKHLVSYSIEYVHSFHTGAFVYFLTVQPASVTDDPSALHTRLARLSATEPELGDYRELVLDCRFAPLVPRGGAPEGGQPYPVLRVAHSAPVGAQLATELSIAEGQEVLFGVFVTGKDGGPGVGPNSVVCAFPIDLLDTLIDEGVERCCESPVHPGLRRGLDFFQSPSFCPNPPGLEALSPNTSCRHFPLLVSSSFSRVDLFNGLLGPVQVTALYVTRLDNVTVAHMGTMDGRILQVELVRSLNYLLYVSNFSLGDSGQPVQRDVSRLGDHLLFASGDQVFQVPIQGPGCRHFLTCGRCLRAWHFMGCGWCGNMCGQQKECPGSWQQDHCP


How the values were obtained:
RON Sema-PSI-AFH protein [1] = target: T1, RON Sema-PSI-AFH protein; test: SPR (Biacore T100); Interceptor captured by immobilized anti-human Fc, soluble RON Sema-PSI-AFH flowed over
Experimental: (§1) The binding kinetics of RON-f murine antibody, SMIP and Interceptor to soluble RON Sema-PSI-AFH were determined using a Biacore T100 (GE Healthcare, Piscataway, N.J.). Anti-RON murine antibody was captured using immobilized anti-mouse Fc polyclonal antibody while the SMIP and Interceptor were captured by anti-human Fc monoclonal antibody. The capture antibodies, both from GE Healthcare, were covalently conjugated to a carboxylmethyl dextran surface (CM4) via amines using N-ethyl-N′-(3-dimethylaminopropyl)-carbodiimide hydrochloride and N-hydroxysuccinimide. The unoccupied sites of the activated surface were blocked by ethanolamine. […] During each cycle, a single concentration of soluble RON Sema-PSI-AFH was injected and then allowed to dissociate. At the end of each cycle, the surface was regenerated gently using 3M MgCl₂ which dissociates protein bound to the capture antibodies. Signal associated with binding to the reference cell was used to subtract for bulk refractive changes and blank (buffer-only) injections were used to correct for drift and system noise.
(§2) Kinetic parameters and affinities were determined using BIAevaluation software. The kₐ (M⁻¹s⁻¹) and kd (s⁻¹) rates of the interaction were used to calculate the affinity constant, KD (M), of the antibody/receptor interaction. The KD is defined as the ratio of the kd and kₐ constants (kd/kₐ). The RON-f01 murine antibody was tested in a single experiment while the RON-f02 SMIP and RON-f03 Interceptor molecules were each tested in three independent experiments. RON-f molecules were captured on a sensor chip with immobilized anti-Fc while soluble RON Sema-PSI-AFH protein was flowed over the surface at varying concentrations.

[2] = target: T2, recombinant RON Sema-PSI protein (R&D Systems #1947-MS) (human, UniProt Q04912 25-571); test: ELISA, plate coated with 1 µg/ml recombinant RON Sema-PSI
T2 construct: Bought protein, expressed in NS0 cells; not shown: carboxyl-terminal histidine tag
Experimental: (§3) To determine binding of murine antibodies to the Sema-PSI domain of RON, 96-well EIA/RIA microplates were coated with 1 μg/ml recombinant RON Sema-PSI (R&D Systems #1947-MS, Minneapolis, Minn.). This protein includes the Sema and PSI domains of human RON (Glu 25-Leu 571; see SEQ ID NO:784) coupled to a carboxyl-terminal histidine tag and expressed in the NS0 mouse myeloma cell line. Plates were blocked with 10% FBS in DPBS prior to adding hybridoma supernatants diluted […] in serum diluent. Murine antibodies bound to recombinant RON Sema-PSI were detected as described above.
(§4) “Diluent only” samples represent background binding in each assay when only serum diluent was run as the sample. As a positive control for IgG measurement and recombinant RON Sema-PSI binding, 250 ng/ml of an anti-human RON antibody (R&D Systems #MAB691, Minneapolis, Minn.) was tested in both ELISAs.

[3] = target: T3, human RON (recepteur d'origine Nantaise, MST1R), full length on cells (human, UniProt Q04912 25-1400); test: flow cytometry, NIH/3T3 cells transfected with human RON, hybridoma supernatant
T3 construct: Over-expressed on transfected NIH/3T3 cells, or native on BxPC-3 and MDA-MB-453 cells; also called native human RON
From the text: NIH/3T3 cells transfected with human or macaque RON or empty vector, were dissociated with trypsin and stained at 1.6×10⁵ cells/sample on ice with hybridoma supernatants or purified antibodies diluted in Staining Buffer (2% FBS in Dulbecco's PBS). Unlabeled murine IgG (SouthernBiotech, Birmingham, Ala.) and the DX07 anti-RON β-chain antibody (Santa Cruz Biotechnology, Santa Cruz, Calif.) were employed as negative and positive controls respectively. Murine antibodies were detected with R-PE-conjugated goat anti-mouse IgG (SouthernBiotech). Samples were analyzed on a BD FACSCalibur flow cytometer fitted with an HTS using PlateManager and CellQuest Pro software (BD Biosciences, San Jose, Calif.). Data was plotted using FlowJo software (Tree Star, Ashland, Oreg.).
NIH/3T3 cells transfected with empty vector (dashed), human RON (dotted) or Macaca mulatta RON (solid) were stained with secondary antibody alone (FIG. 1A), 1 mg/ml murine IgG (FIG. 1B), 1 mg/ml DX07 anti-RON antibody (FIG. 1C), RON-e01 anti-RON hybridoma supernatant (FIG. 1D) or RON-f01 anti-RON hybridoma supernatant (FIG. 1E).

[4] = target: T2, recombinant RON Sema-PSI protein (R&D …); test: ELISA, plate coated with 1 µg/ml recombinant RON Sema-PSI, hybridoma supernatants
Experimental: as §3, §4

RON Sema-PSI-AFH protein [5] = target: T1, RON Sema-PSI-AFH protein; test: SPR (Biacore T100); antibody captured by immobilized anti-mouse Fc, soluble RON Sema-PSI-AFH flowed over
Experimental: as §1, §2

Binder | Kd (RON Sema-PSI-AFH protein [1]) | koff (RON Sema-PSI-AFH protein [1]) | kon (RON Sema-PSI-AFH protein [1]) | binding result [2] | binding result [3] | binding result [4] | Kd (RON Sema-PSI-AFH protein [5]) | koff (RON Sema-PSI-AFH protein [5]) | kon (RON Sema-PSI-AFH protein [5])
RON-f03 Interceptor (4C04 scFv, Interceptor Pair 2) (other, also called RON-f03 2nd generation interceptor) chain 1: DIQMTQSPASQSASLGESVTITCLASQTIGTWLAWYQQKPGKSPQLLIYAATSLADGVPSRFSASGSGTKFSFKIDSLQSEDFVSYYCQQLYNTPWTFGGGTKLEIKGGGGSGGGGSGGGGSQIQLQQSGPELVKPGTSVKISCKASDYTLTDFYMNWVRQKPGQGLEWIGRIYPGTDKTRYNEKFRDKAILTVDTSSSTAYMQLSSLTSEDTAVYFCARSAYYGNYVAMDYWGQGTSVTVSSSASTKGPSVFPLAPSSKSTSGGTAALGCLVKDYFPEPVTVSWNSGALTSGVHTFPAVLQSSGLYSLSSVVTVPSSSLGTQTYICNVNHKPSNTKVDKKVRTEPKSSDKTHTCPPCPSGAPELLGGPSVFLFPPKPKDTLMISRTPEVTCVVVDVSHEDPEVKFNWYVDGVEVHNAKTKPREEQYNSTYRVVSVLTVLHQDWLNGKEYKCKVSNKALPAPIEKTISKAKGQPREPQVYTLPPSRDELTKNQVSLTCLVKGFYPSDIAVEWESNGQPENNYKTTPPVLDSDGSFFLYSKLTVDKSRWQQGNVFSCSVMHEALHNHYTQKSLSLSPGKSRTVAAPSVFIFPPSDEQLKSGTASVVCLLNNFYPREAKVQWKVDNALQSGNSQESVTEQDSKDSTYSLSSTLTLSKADYEKHKVYACEVTHQGLSSPVTKSFNRGE chain 2: TVAAPSVFIFPPSDEQLKSGTASVVCLLNNFYPREAKVQWKVDNALQSGNSQESVTEQDSKDSTYSLSSTLTLSKADYEKHKVYACEVTHQGLSSPVTKSFNRGERTEPKSSDKTHTCPPCPSGAPELLGGPSVFLFPPKPKDTLMISRTPEVTCVVVDVSHEDPEVKFNWYVDGVEVHNAKTKPREEQYNSTYRVVSVLTVLHQDWLNGKEYKCKVSNKALPAPIEKTISKAKGQPREPQVYTLPPSRDELTKNQVSLTCLVKGFYPSDIAVEWESNGQPENNYKTTPPVLDSDGSFFLYSKLTVDKSRWQQGNVFSCSVMHEALHNHYTQKSLSLSPGKSRASTKGPSVFPLAPSSKSTSGGTAALGCLVKDYFPEPVTVSWNSGALTSGVHTFPAVLQSSGLYSLSSVVTVPSSSLGTQTYICNVNHKPSNTKVDKKV | 0.156 nM | 6.78e-05 s⁻¹ | 434000 M⁻¹ s⁻¹ |  |  |  |  |  | 
RON-e01 murine antibody (11H09 hybridoma) (antibody, V domains shown, Murine monoclonal antibody from a hybridoma, used as supernatant or purified; also called RON-e01 Antibody) VH: QVQLQQSGAELAKPGASVKMSCKSSGYTFTSYWIHWVKERPGQGLEWIGYIYPTTGYTESNQKFKDKATLTADKSSSTAYMQLSSLTSEDSAVYYCFLLRPWYFDVWGAGTTVTVSS VL: DIQMTQSPSSLSASLGERVSLTCRASQDIGSSLSWLQQEPDGTIKRLIYSTSSLDSGVPKRFSGSRSGSDYSLTISSLESEDFVDYYCLQYASSPWTFGGGTKLEIK |  |  |  | no binding | binds |  |  |  | 
RON-f01 murine antibody (4C04 hybridoma) (antibody, V domains shown, Murine monoclonal antibody from a hybridoma; also called RON-f01 Antibody) VH: QIQLQQSGPELVKPGTSVKISCKASDYTLTDFYMNWVRQKPGQGLEWIGRIYPGTDKTRYNEKFRDKAILTVDTSSSTAYMQLSSLTSEDTAVYFCARSAYYGNYVAMDYWGQGTSVTVSL VL: DIQMTQSPASQSASLGESVTITCLASQTIGTWLAWYQQKPGKSPQLLIYAATSLADGVPSRFSASGSGTKFSFKIDSLQSEDFVSYYCQQLYNTPWTFGGGTKLEIK |  |  |  |  | binds | binds | 0.15 nM | 9.49e-05 s⁻¹ | 632000 M⁻¹ s⁻¹
